Legend:
[1] = target: His-tagged RctB fragment C208 (Vibrio cholerae); experiment: SEC; Superdex 200 10/300 GL in RctB buffer; molar mass from peak position against protein standards
[2] = target: His-tagged RctB fragment C208 (Vibrio cholerae); experiment: AUC; sedimentation velocity, 50 000 rpm, 20°C; 0.3M NaCl, 0.025M Tris-HCl (pH 8.0), 0.0005M EDTA, 5% (v/v) glycerol; C137, C157 and C208 loaded at 3.6, 15 and 5.8 μM
[3] = target: His-tagged RctB fragment C157 (Vibrio cholerae); experiment: SEC; Superdex 200 10/300 GL in RctB buffer; molar mass from peak position against protein standards
[4] = target: His-tagged RctB fragment C157 (Vibrio cholerae); experiment: AUC; sedimentation velocity, 50 000 rpm, 20°C; 0.3M NaCl, 0.025M Tris-HCl (pH 8.0), 0.0005M EDTA, 5% (v/v) glycerol; C137, C157 and C208 loaded at 3.6, 15 and 5.8 μM

Substance | stoichiometry N [1] | stoichiometry N [2] | stoichiometry N [3] | stoichiometry N [4]
His-tagged RctB fragment C208 (domain or fragment) | 2 | 2 |  | 
His-tagged RctB fragment C157 (domain or fragment) |  |  | 2 | 2
